Experimental data: the Immune Epitope Database (IEDB)
Values belong to the sequence of their own block, whether it stands above or below them.

Assays:
HLA-B*27:05 [1] = assay: IEDB peptide-MHC binding, purified MHC/competitive/fluorescence; ≥ and ≤ were set here for values at or beyond the usual limits of such assays; details: source organism: hepatitis C virus genotype 1a
HLA-B*46:01 [2] = assay: IEDB peptide-MHC binding, cellular MHC/competitive/fluorescence; ≥ and ≤ were set here for values at or beyond the usual limits of such assays; details: source organism: Human herpesvirus 4 strain B95-8
HLA-A*29:02 [3] = assay: IEDB peptide-MHC binding, purified MHC/competitive/radioactivity; ≥ and ≤ were set here for values at or beyond the usual limits of such assays; details: source organism: Human papillomavirus 16
HLA-B*35:01 [4] = assay: IEDB peptide-MHC binding, cellular MHC/competitive/fluorescence; ≥ and ≤ were set here for values at or beyond the usual limits of such assays; details: source organism: Mycobacterium tuberculosis H37Rv
HLA-B*15:02 [5] = assay: IEDB peptide-MHC binding, purified MHC/competitive/fluorescence; filed as Kd, often an IC50 or EC50 that approximates it; ≥ and ≤ were set here for values at or beyond the usual limits of such assays
HLA-C*07:02 = assay: IEDB peptide-MHC binding, purified MHC/direct/fluorescence; filed as Kd, often an IC50 or EC50 that approximates it; ≥ and ≤ were set here for values at or beyond the usual limits of such assays; details: source organism: Burkholderia pseudomallei 406e
HLA-C*14:02 = assay: as above; details: source organism: Burkholderia pseudomallei 406e
HLA-C*15:02 = assay: as above; details: source organism: Burkholderia pseudomallei 406e
HLA-B*27:20 = assay: IEDB peptide-MHC binding, purified MHC/competitive/fluorescence; filed as Kd, often an IC50 or EC50 that approximates it; ≥ and ≤ were set here for values at or beyond the usual limits of such assays; details: source organism: Burkholderia pseudomallei 406e
HLA-B*45:06 = assay: as above; details: source organism: Burkholderia pseudomallei 406e
HLA-A*68:23 = assay: as above; details: source organism: Burkholderia pseudomallei 406e
HLA-B*15:42 = assay: as above; details: source organism: Burkholderia pseudomallei 406e
HLA-C*06:02 = assay: as above; details: source organism: Burkholderia pseudomallei 406e
HLA-A*32:15 = assay: as above; details: source organism: Burkholderia pseudomallei 406e
HLA-B*40:13 = assay: as above; details: source organism: Burkholderia pseudomallei 406e
HLA-B*83:01 = assay: as above; details: source organism: Burkholderia pseudomallei 406e
HLA-A*29:02 [6] = assay: as above; details: source organism: Burkholderia pseudomallei 406e
HLA-A*03:01 = assay: IEDB peptide-MHC binding, purified MHC/direct/fluorescence; filed as Kd, often an IC50 or EC50 that approximates it; ≥ and ≤ were set here for values at or beyond the usual limits of such assays; details: source organism: Pasteurella multocida
HLA-A*26:01 [7] = assay: as above; details: source organism: Pasteurella multocida
HLA-A*01:01 = assay: as above
HLA-B*07:02 = assay: as above
HLA-B*40:01 = assay: as above; details: source organism: Pasteurella multocida
HLA-B*08:01 = assay: as above; details: source organism: Pasteurella multocida
HLA-A*69:01 = assay: as above
HLA-B*27:05 [8] = assay: as above
HLA-A*11:01 [9] = assay: as above
HLA-B*58:01 = assay: as above
HLA-B*15:01 = assay: as above
HLA-B*35:01 [10] = assay: as above
HLA-A*02:01 = assay: as above
HLA-A*31:01 = assay: as above
HLA-B*27:04 = assay: IEDB peptide-MHC binding, cellular MHC/competitive/fluorescence; ≥ and ≤ were set here for values at or beyond the usual limits of such assays; details: source organism: Human herpesvirus 4 strain B95-8
HLA-B*15:02 [11] = assay: IEDB peptide-MHC binding, purified MHC/direct/fluorescence; filed as Kd, often an IC50 or EC50 that approximates it; ≥ and ≤ were set here for values at or beyond the usual limits of such assays
HLA-B*15:09 = assay: as above; details: source organism: Yersinia pestis KIM10+
HLA-B*39:01 = assay: as above; details: source organism: Yersinia pestis KIM10+
HLA-B*46:01 [12] = assay: as above
HLA-B*08:02 = assay: as above
HLA-B*48:01 = assay: as above
HLA-A*26:01 [13] = assay: IEDB peptide-MHC binding, purified MHC/competitive/fluorescence; filed as Kd, often an IC50 or EC50 that approximates it; ≥ and ≤ were set here for values at or beyond the usual limits of such assays; details: source organism: Yersinia pestis KIM10+
HLA-A*11:01 [14] = assay: as above; details: source organism: Yersinia pestis KIM10+
HLA-A*24:02 = assay: IEDB peptide-MHC binding, cellular MHC/competitive/fluorescence; ≥ and ≤ were set here for values at or beyond the usual limits of such assays; details: source organism: Human herpesvirus 5 strain AD169
HLA-B*73:01 = assay: IEDB peptide-MHC binding, purified MHC/competitive/fluorescence; filed as Kd, often an IC50 or EC50 that approximates it; ≥ and ≤ were set here for values at or beyond the usual limits of such assays; details: source organism: Yersinia enterocolitica subsp. enterocolitica 8081
HLA-B*57:01 = assay: IEDB peptide-MHC binding, purified MHC/direct/fluorescence; filed as Kd, often an IC50 or EC50 that approximates it; ≥ and ≤ were set here for values at or beyond the usual limits of such assays; details: source organism: Camelpox virus M-96
HLA-A*26:03 = assay: as above; details: source organism: Variola virus
HLA-A*68:02 = assay: as above; details: source organism: Camelpox virus M-96
HLA-B*15:17 = assay: IEDB peptide-MHC binding, purified MHC/competitive/fluorescence; filed as Kd, often an IC50 or EC50 that approximates it; ≥ and ≤ were set here for values at or beyond the usual limits of such assays; details: source organism: Vaccinia virus WR
HLA-A*26:02 = assay: as above; details: source organism: Vaccinia virus WR
HLA-B*15:03 = assay: IEDB peptide-MHC binding, purified MHC/competitive/radioactivity; filed as Kd, often an IC50 or EC50 that approximates it; ≥ and ≤ were set here for values at or beyond the usual limits of such assays; details: source organism: Vaccinia virus WR
[15] = source organism: Pasteurella multocida
[16] = source organism: Yersinia pestis KIM10+
[17] = source organism: Yersinia pestis
[18] = source organism: Camelpox virus M-96

Sequence: GKAVICGKY
IC50 (HLA-B*27:05 [1]): 4.67 µM

Sequence: HAMHISTGL
IC50 (HLA-B*46:01 [2]): 5 µM

Sequence: IFVYIPLFL
IC50 (HLA-A*29:02 [3]): 0.444 µM

Sequence: MPVGGQSSFY
IC50 (HLA-B*35:01 [4]): 0.3 µM

Sequence: MQLPQGGAF
Kd (HLA-B*15:02 [5]; source organism: Burkholderia pseudomallei K96243): 0.0235 µM

Sequence: MSWGWRLPF
Kd (HLA-C*07:02): 0.248 µM
Kd (HLA-C*14:02): 0.286 µM
Kd (HLA-C*15:02): 1.72 µM
Kd (HLA-B*27:20): 0.0497 µM
Kd (HLA-B*45:06): ≥ 5 µM
Kd (HLA-A*68:23): 0.0802 µM
Kd (HLA-B*15:42): ≥ 5 µM
Kd (HLA-C*06:02): 0.387 µM
Kd (HLA-A*32:15): 0.005 µM
Kd (HLA-B*40:13): 0.223 µM
Kd (HLA-B*83:01): 5.92 µM
Kd (HLA-A*29:02 [6]): 0.0161 µM

Kd (HLA-A*03:01): ≥ 20 µM
Kd (HLA-A*26:01 [7]): ≥ 20 µM
Kd (HLA-A*01:01; [15]): ≥ 20 µM
Kd (HLA-B*07:02; [15]): ≥ 20 µM
Kd (HLA-B*40:01): ≥ 20 µM
Kd (HLA-B*08:01): ≥ 20 µM
Kd (HLA-A*69:01; [15]): ≥ 20 µM
Kd (HLA-B*27:05 [8]; [15]): ≥ 20 µM
Kd (HLA-A*11:01 [9]; [15]): ≥ 20 µM
Kd (HLA-B*58:01; [15]): ≥ 20 µM
Kd (HLA-B*15:01; [15]): 0.299 µM
Kd (HLA-B*35:01 [10]; [15]): 0.121 µM
Kd (HLA-A*02:01; [15]): ≥ 20 µM
Kd (HLA-A*31:01; [15]): ≥ 20 µM
Kd (HLA-B*15:02 [5]; source organism: Pasteurella multocida subsp. multocida str. Pm70): 0.0744 µM
Sequence: SQLEMCEKY

Sequence: SRRTSRPNR
IC50 (HLA-B*27:04): 10 µM

Sequence: STFAASGPF
Kd (HLA-B*15:02 [11]; [16]): 0.009 µM
Kd (HLA-A*01:01; [17]): ≥ 20 µM
Kd (HLA-B*15:09): ≥ 20 µM
Kd (HLA-B*07:02; [17]): ≥ 20 µM
Kd (HLA-B*39:01): ≥ 20 µM
Kd (HLA-B*46:01 [12]; [17]): 6.19 µM
Kd (HLA-B*27:05 [8]; [17]): ≥ 20 µM
Kd (HLA-B*58:01; [17]): ≥ 20 µM
Kd (HLA-B*08:02; [16]): ≥ 20 µM
Kd (HLA-B*15:01; [17]): 0.007 µM
Kd (HLA-B*48:01; [17]): ≥ 20 µM
Kd (HLA-B*35:01 [10]; [16]): 0.045 µM
Kd (HLA-A*02:01; [17]): ≥ 20 µM
Kd (HLA-A*31:01; [17]): ≥ 20 µM
Kd (HLA-A*26:01 [13]): 0.0192 µM
Kd (HLA-A*11:01 [14]): ≥ 20 µM

Sequence: VFPTKDVAL
IC50 (HLA-A*24:02): ≥ 333 µM

Sequence: WDYLVRHDA
Kd (HLA-B*73:01): 4.5 µM

Sequence: YQYIFLSFF
Kd (HLA-B*15:02 [11]; source organism: Variola virus): 1.94 µM
Kd (HLA-A*01:01; [18]): ≥ 20 µM
Kd (HLA-B*07:02; [18]): ≥ 20 µM
Kd (HLA-B*57:01): ≥ 20 µM
Kd (HLA-A*26:03): ≥ 20 µM
Kd (HLA-B*46:01 [12]; [18]): ≥ 20 µM
Kd (HLA-A*69:01; [18]): ≥ 20 µM
Kd (HLA-B*27:05 [8]; [18]): ≥ 20 µM
Kd (HLA-A*11:01 [9]; [18]): ≥ 20 µM
Kd (HLA-B*58:01; [18]): ≥ 20 µM
Kd (HLA-A*68:02): ≥ 20 µM
Kd (HLA-B*08:02; source organism: Variola virus): ≥ 20 µM
Kd (HLA-B*15:01; [18]): 3.06 µM
Kd (HLA-B*48:01; [18]): ≥ 20 µM
Kd (HLA-A*02:01; [18]): ≥ 20 µM
Kd (HLA-A*31:01; [18]): ≥ 20 µM
Kd (HLA-B*15:17): ≥ 20 µM
Kd (HLA-A*26:02): ≥ 20 µM
Kd (HLA-B*15:03): 0.000944 µM
